Results from publication PMC7597677.

Target: cGMP phosphodiesterase 6 (PDE6) hetero-tetramer, native bovine (bovine) (UniProt P11541)
Assay: cryo-EM structure

UniProt P11541, sequence (P11541 whole entry, chain 1 of 3): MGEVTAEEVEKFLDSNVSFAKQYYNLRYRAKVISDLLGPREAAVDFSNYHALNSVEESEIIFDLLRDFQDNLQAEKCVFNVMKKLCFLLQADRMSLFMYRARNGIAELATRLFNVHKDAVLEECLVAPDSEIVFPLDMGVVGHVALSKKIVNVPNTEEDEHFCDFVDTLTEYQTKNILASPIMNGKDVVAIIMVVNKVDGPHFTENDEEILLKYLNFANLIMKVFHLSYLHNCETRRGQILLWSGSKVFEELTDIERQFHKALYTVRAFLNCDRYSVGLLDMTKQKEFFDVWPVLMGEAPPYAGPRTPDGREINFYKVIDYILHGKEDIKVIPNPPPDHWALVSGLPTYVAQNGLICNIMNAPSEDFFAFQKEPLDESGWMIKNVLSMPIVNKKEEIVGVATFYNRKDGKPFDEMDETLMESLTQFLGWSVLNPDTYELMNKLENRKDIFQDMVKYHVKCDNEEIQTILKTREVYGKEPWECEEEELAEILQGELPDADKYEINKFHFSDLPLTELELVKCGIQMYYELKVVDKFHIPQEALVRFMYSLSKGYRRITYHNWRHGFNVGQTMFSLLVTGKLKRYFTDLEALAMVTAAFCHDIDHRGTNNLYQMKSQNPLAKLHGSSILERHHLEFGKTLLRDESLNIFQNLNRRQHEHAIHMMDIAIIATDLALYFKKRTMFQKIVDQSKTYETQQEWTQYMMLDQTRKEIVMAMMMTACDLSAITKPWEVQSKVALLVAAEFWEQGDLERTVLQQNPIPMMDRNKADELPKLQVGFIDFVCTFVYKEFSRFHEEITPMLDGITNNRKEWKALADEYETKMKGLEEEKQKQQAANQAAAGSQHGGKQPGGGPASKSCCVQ
UniProt P11541, sequence (P23439 whole entry, chain 2 of 3, further chain): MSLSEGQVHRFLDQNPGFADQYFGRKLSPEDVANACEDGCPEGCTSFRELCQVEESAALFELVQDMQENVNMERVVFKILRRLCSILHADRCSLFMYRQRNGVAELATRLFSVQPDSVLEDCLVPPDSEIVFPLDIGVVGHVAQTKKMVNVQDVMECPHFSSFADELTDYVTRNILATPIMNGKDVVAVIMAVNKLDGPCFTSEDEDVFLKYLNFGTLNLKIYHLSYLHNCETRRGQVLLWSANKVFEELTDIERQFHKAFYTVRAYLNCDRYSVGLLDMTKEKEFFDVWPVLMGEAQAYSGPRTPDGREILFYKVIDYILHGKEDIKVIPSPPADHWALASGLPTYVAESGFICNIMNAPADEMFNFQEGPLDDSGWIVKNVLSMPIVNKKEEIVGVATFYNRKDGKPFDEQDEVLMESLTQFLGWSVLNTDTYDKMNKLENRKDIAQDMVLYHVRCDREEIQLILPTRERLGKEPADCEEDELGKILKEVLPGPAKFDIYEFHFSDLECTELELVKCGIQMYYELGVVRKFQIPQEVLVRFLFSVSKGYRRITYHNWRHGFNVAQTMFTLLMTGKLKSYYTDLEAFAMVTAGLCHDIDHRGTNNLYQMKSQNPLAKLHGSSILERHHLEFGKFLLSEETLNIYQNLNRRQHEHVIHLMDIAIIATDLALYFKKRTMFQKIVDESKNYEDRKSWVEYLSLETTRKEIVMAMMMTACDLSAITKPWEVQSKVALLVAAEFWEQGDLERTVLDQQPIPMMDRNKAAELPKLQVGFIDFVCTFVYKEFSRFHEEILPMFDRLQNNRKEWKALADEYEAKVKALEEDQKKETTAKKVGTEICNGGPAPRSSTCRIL
UniProt P11541, sequence (P04972 whole entry, chain 3 of 3, further chain): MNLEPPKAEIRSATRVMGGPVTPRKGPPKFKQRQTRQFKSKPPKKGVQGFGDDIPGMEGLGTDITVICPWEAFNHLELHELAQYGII

stoichiometry N (GαT·GTP per PDE6 hetero-tetramer): 2
Substance: 1D4-tagged recombinant GαT subunit (R174C, Q200L), GTP-bound (from UniProt P04695 1-350) (natural protein)
